Values quoted from earlier work, collected in PMC8131754.

Biological target: SRC-2 coactivator peptide (Homo sapiens) (UniProt Q15596)
Sequence of UniProt Q15596 (Q15596 2-1464): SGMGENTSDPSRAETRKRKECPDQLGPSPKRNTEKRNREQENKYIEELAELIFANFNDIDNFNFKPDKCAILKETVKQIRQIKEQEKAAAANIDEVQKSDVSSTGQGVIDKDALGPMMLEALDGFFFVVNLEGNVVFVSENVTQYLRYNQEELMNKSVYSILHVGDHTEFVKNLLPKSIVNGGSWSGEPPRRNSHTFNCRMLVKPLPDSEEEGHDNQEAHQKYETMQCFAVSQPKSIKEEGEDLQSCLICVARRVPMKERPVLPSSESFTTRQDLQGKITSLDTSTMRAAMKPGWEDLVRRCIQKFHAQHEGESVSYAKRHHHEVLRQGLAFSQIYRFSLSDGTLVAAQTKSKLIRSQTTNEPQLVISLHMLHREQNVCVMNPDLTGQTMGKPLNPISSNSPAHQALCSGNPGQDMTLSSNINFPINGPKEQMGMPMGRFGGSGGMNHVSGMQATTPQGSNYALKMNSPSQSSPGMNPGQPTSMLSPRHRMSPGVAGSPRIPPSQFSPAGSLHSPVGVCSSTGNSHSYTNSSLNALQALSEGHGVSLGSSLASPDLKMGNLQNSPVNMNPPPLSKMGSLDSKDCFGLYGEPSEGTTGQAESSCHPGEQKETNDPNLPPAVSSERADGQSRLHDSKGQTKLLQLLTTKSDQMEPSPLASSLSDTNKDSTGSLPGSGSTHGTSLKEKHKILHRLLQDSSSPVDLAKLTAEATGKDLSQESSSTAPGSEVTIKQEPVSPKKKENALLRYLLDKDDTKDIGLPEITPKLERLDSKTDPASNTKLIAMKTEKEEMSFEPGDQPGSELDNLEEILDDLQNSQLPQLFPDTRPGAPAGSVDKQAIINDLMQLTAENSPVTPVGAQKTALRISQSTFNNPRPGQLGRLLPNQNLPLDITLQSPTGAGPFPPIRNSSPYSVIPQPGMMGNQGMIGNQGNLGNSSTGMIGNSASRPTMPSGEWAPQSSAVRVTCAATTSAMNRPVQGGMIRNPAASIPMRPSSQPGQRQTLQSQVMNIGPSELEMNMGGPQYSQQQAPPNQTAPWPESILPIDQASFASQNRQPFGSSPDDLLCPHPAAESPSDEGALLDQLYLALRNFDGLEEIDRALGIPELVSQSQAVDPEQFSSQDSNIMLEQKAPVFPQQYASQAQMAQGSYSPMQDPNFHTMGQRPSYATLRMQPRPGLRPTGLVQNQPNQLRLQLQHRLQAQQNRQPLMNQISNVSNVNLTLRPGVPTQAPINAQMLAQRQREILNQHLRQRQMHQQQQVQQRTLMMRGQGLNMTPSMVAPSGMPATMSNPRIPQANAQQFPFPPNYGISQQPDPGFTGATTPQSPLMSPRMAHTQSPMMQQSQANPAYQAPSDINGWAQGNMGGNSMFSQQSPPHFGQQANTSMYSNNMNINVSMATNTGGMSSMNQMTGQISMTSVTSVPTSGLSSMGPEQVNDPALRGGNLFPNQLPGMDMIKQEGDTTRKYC

Kd: 0.175 µM
Substance: Estrogen receptor α LBD (from UniProt P03372)
